Source: patent publication US20160317649A1, “EPITOPES OF HERPES SIMPLEX VIRUS” (priority 2007, published 2016)
Where two headings read alike, the source gives them in different places.

Legend:
Settings in all cases: modification not given
HLA DRB1*0701 (human) [1] = molecular target: HLA DRB1*0701 (human)
HLA DRB1*0101 (human) [2] = molecular target: HLA DRB1*0101 (human)
HLA DRB1*0701 (human) [3] = molecular target: HLA DRB1*0701 (human); remark: listed apart in the source
HLA DRB1*0101 (human) [4] = molecular target: HLA DRB1*0101 (human); remark: listed apart in the source
HLA DRB1*1302 (human) = molecular target: HLA DRB1*1302 (human)
HLA DRB1*0101 (human) [5] = molecular target: HLA DRB1*0101 (human); remark: listed apart in the source

Question: Which IC50 (HLA DRB1*0701 (human) [1]) does the source give for AYQQGVTVDSIG [24.2] here?
Answer: The IC50 was 2720 nM.

Question: What about the IC50 (HLA DRB1*0101 (human) [2]) of the same binder?
Answer: Its IC50 is 471 nM.

Question: With YQQGVTVDSIGM [24.3] as the binder, how does the IC50 (HLA DRB1*0701 (human) [3]) read?
Answer: The IC50 was 389 nM.

Question: APAAPANPGLII [34.2] was tested. Which IC50 (HLA DRB1*0101 (human) [4]) did it give?
Answer: The IC50 was 1270 nM.

Question: What about the IC50 (HLA DRB1*1302 (human)) of the same binder?
Answer: The IC50 was 642 nM.

Question: Which IC50 (HLA DRB1*0101 (human) [5]) does the source give for HAPAAPANPGLI [34.1] here?
Answer: The IC50 was 3550 nM.
